Tests used:
Type in all cases: cell-based, human
[1] = tested on: wild-type and variant SNAP-GIPR; experiment: Constitutive and agonist-mediated internalization, reversible SNAP-tag labelling, INS-1 cells; set-up: key to Internalisation, GIP-only / Internalisation, Vehicle / Internalisation, +GIP: % internalization: residual fluorescence after Mesna vs pre-Mesna; details: Mean
Description: (§1) Twenty-four hours before the experiment, AD293 or INS-1 cells were reverse transfected with GIPR variant or wild-type plasmids using Lipofectamine 2000 in 96-well, clear-bottom, black microplates precoated with poly-D-lysine. All variants were tested in parallel on each occasion to control for transfection efficiency differences between experiments. […] Media were then removed, cells washed with PBS and then placed in TNE buffer (pH 8.6) for imaging. […] After 10 min, the well was reimaged again to detect remaining fluorescence from internalized GIPR. Images were analyzed as in the “Assessment of surface GIPR expression by SNAP-tag labeling in cell lines” section, with the residual specific fluorescence after Mesna treatment expressed relative to the pre-Mesna value to establish percentage internalization.

[2] = tested on: wild-type and variant SNAP-GIPR; experiment: Single-concentration GIP cAMP response by HTRF in AD293 cells; details: Fig S3F, HTRF, mean;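 note: ratio to experiment-wide average response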
Description: (§2) All variants were tested in parallel on each occasion to control for transfection efficiency differences between experiments.

[3] = tested on: wild-type and variant SNAP-GIPR; experiment: Surface SNAP-GIPR expression (SNAP-tag labelling) in AD293 cells; details: for AD293 Surface: Fig S3E, mean; for Surface SNAP-GIPR expression: sheet Fig 1C;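 for all read-outs here: scaled to the experimental average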
Procedure, shortened: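 Read-out: whole-cell fluorescence of surface-only SNAP label (Alexa Fluor 647, 500 nM, 10 min, RT), wide-field 20X, several FOVs per well. Flat-field corrected, phase-contrast masked, nontransfected-well signal subtracted; normalized to experiment mean or wild-type.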

[4] = tested on: wild-type and variant SNAP-GIPR; experiment: cADDis cAMP imaging in AD293 cells, ensemble, expression-matched and per decile; details: Fig S3F, cADDis, mean
Description: AD293 cells were reverse transfected with the GIPR variant or wild-type plasmids using Lipofectamine 2000 and cotransduced with the cADDis Green Up BacMam (10 μl per well, Montana Molecular, USA), in 96-well, poly-D-lysine–coated microplates. All variants were tested in parallel on each occasion to control for transfection efficiency differences between experiments. After 24 hours, cells were labeled using 500 nM SNAP-Surface Alexa Fluor 647 for 10 min at room temperature. Cells were washed three times and then imaged in KRBH buffer containing 6 mM glucose and 0.1% BSA. Imaging was performed at 37°C by wide-field microscopy using the same microscope as in the “Assessment of surface GIPR expression by SNAP-tag labeling in cell lines” section, with 9 FOVs for both cADDis and SNAP-Surface fluorescence acquired from each well using a 10X, 0.45 NA air objective. […] Flat-field correction was performed using BaSiC ([72]), drift correction was performed using SIFT, and a maximum intensity projection of the cADDis channel was used to segment individual cells. cAMP responses were determined by quantifying the cADDis fluorescence intensity for each cell at each time point. Nonviable cells or noncell objects were excluded according to criteria for allowable cell IBMX/FSK responses. […] The cADDis mask was then used to quantify the SNAP-Surface signal from each cell. Wild-type SNAP-Surface readings were split into deciles, and these deciles were subsequently used to categorize variant-transfected cells to match against the wild type. After trimming the top and bottom deciles, the mean was taken of each decile mean for surface expression level or cAMP response, which achieved matched expression levels by effectively applying an inverse weighting to counteract differences in cell number in each decile for different variants. Ensemble expression levels or cAMP responses were calculated without regard to deciles. Variant cADDis responses were also analyzed within their own surface expression deciles.

[5] = tested on: wild-type and variant SNAP-GIPR; experiment: Constitutive and agonist-mediated internalization, reversible SNAP-tag labelling, AD293 cells; set-up: key to Internalisation, Vehicle / Internalisation, +GIP / Internalisation, GIP-only: % internalization: residual fluorescence after Mesna vs pre-Mesna; Surface expression: unit not given here; details: Mean
Description: as §1

[6] = tested on: wild-type and variant SNAP-GIPR; experiment: Surface SNAP-GIPR expression (SNAP-tag labelling) in INS-1 cells; details: Fig 4G; Mean
Description: Twenty-four hours before the experiment, AD293 or INS-1 cells were reverse transfected with GIPR variant or wild-type plasmids using Lipofectamine 2000 in 96-well, clear-bottom, black microplates precoated with poly-D-lysine. All variants were tested in parallel on each occasion to control for transfection efficiency differences between experiments. Cells were then labeled using the cell-impermeant probe SNAP-Surface Alexa Fluor 647 (500 nM, New England Biolabs, USA) for 10 min at room temperature to label only surface GIPR. […] Several fields of view (FOVs) were acquired within each well using a 20X, 0.75–numerical aperture (NA) air objective. Surface GIPR fluorescence was quantified after flat-field correction using BaSiC ([72]) and segmenting using Phantast ([73]), which generates a mask based on the phase contrast images to demarcate cell versus noncell. Wide-field imaging of the surface-specific labeling achieved by SNAP-Surface probes means that surface expression can be established from whole-cell fluorescence, after subtracting nonspecific fluorescence from a separate well containing nontransfected cells processed in parallel from the same experiment. Data were normalized by dividing by the average specific signal across each experiment, or by the wild-type value, as indicated in the figure legends.

[7] = tested on: wild-type and variant SNAP-GIPR; experiment: Single-concentration GIP cAMP response by HTRF in INS-1 cells; details: Fig S3E, mean
Description: as §2

B1: A268V (protein, UniProt P48546 22-466, looked up, variant A268V)
Gastric inhibitory …: RAETGSKGQTAGELYQRWERYRRECQETLAAAEPPSGLACNGSFDMYVCWDYAAPNATARASCPWYLPWHHHVAAGFVLRQCGSDGQWGLWRDHTQCENPEKNEAFLDQRLILERLQVMYTVGYSLSLATLLLALLILSLFRRLHCTRNYIHINLFTSFMLRAAAILSRDRLLPRPGPYLGDQALALWNQALAACRTAQIVTQYCVGANYTWLLVEGVYLHSLLVLVGGSEEGHFRYYLLLGWGAPVLFVIPWVIVRYLYENTQCWERNEVKAIWWIIRTPILMTILINFLIFIRILGILLSKLRTRQMRCRDYRLRLARSTLTLVPLLGVHEVVFAPVTEEQARGALRFAKLGFEIFLSSFQGFLVSVLYCFINKEVQSEIRRGWHHCRLRRSLGEEQRQLPERAFRALPSGSGPGEVPTSRGLSSGTLPGPGNEASRELESYC
+GIP internalisation (100 nM) ([1]; Fig 4G, GIP 100 nM): 0.6195
GIP-specific internalisation (100 nM) ([1]; Fig 4G, GIP 100 nM): 0.1687
Constitutive internalisation (100 nM) ([1]; Fig 4G): 0.4508
Internalisation, +GIP ([1]; Fig S4C, INS-1): 51.1233
Internalisation, GIP-only ([1]; Fig S4C, INS-1): 13.9983
Internalisation, Vehicle ([1]; Fig S4C, INS-1): 37.125
AD293 100 pM HTRF ([2]; AD293, 100 pM): 2.332
AD293 100 nM HTRF ([2]; AD293, 100 nM): 1.283
AD293 Surface ([3]; column repeated, paired with cAMP 100 nM): 1.382
AD293 Surface ([3]; paired with cAMP 100 pM): 1.382
Surface SNAP-GIPR expression ([3]; replicate 1): 1.352
Surface SNAP-GIPR expression ([3]; replicate 2): 1.469
Surface SNAP-GIPR expression ([3]; replicate 3): 1.684
Surface SNAP-GIPR expression ([3]; replicate 4): 1.15
Surface SNAP-GIPR expression ([3]; replicate 5): 1.545
Surface SNAP-GIPR expression ([3]; replicate 6): 1.48
Surface SNAP-GIPR expression ([3]; replicate 7): 1.735
Surface SNAP-GIPR expression ([3]; replicate 8): 0.9896
Surface SNAP-GIPR expression ([3]; replicate 9): 1.756
Surface SNAP-GIPR expression ([3]; replicate 10): 1.344
Surface SNAP-GIPR expression ([3]; replicate 11): 1.392
Surface SNAP-GIPR expression ([3]; replicate 12): 1.329
Surface SNAP-GIPR expression ([3]; replicate 13): 1.75
Surface SNAP-GIPR expression ([3]; replicate 14): 1.057
Surface SNAP-GIPR expression ([3]; replicate 15): 1.196
Surface SNAP-GIPR expression ([3]; replicate 16): 1.17
Surface SNAP-GIPR expression ([3]; replicate 17): 1.366
Surface SNAP-GIPR expression ([3]; replicate 18): 1.286
Surface SNAP-GIPR expression ([3]; replicate 19): 1.239
Surface SNAP-GIPR expression ([3]; replicate 20): 1.203
Surface SNAP-GIPR expression ([3]; replicate 21): 1.125
Surface SNAP-GIPR expression ([3]; replicate 22): 1.189
Surface SNAP-GIPR expression ([3]; replicate 23): 1.374
Surface SNAP-GIPR expression ([3]; replicate 24): 1.314
Surface SNAP-GIPR expression ([3]; replicate 25): 1.303
Surface SNAP-GIPR expression ([3]; replicate 26): 1.296
Surface SNAP-GIPR expression ([3]; replicate 27): 1.545
Surface SNAP-GIPR expression ([3]; replicate 28): 1.175
Surface SNAP-GIPR expression ([3]; replicate 29): 1.642
Surface SNAP-GIPR expression ([3]; replicate 30): 1.674
Surface SNAP-GIPR expression ([3]; replicate 31): 1.459
Surface SNAP-GIPR expression ([3]; replicate 32): 1.555
Surface SNAP-GIPR expression ([3]; replicate 33): 1.663
Surface SNAP-GIPR expression ([3]; replicate 34): 1.328
Surface SNAP-GIPR expression ([3]; replicate 35): 1.277
Surface SNAP-GIPR expression ([3]; replicate 36): 1.382
Surface SNAP-GIPR expression ([3]; replicate 37): 1.6
Surface SNAP-GIPR expression ([3]; replicate 38): 1.461
Surface SNAP-GIPR expression ([3]; replicate 39): 1.123
Surface SNAP-GIPR expression ([3]; replicate 40): 1.335
Surface SNAP-GIPR expression ([3]; replicate 41): 1.367
AD293 100 pM cADDis ([4]; AD293, 100 pM): 34.2441
AD293 100 nM cADDis ([4]; AD293, 100 nM): 37.42
+GIP internalisation (100 nM) ([5]; Fig 4E, GIP 100 nM): 0.7963
GIP-specific internalisation (100 nM) ([5]; Fig 4E, GIP 100 nM): 0.2682
Constitutive internalisation (100 nM) ([5]; Fig 4E): 0.5281
Surface expression ([5]; Fig 4E): 1.472
Internalisation, +GIP ([5]; Fig S4C, AD293): 57.341
Internalisation, GIP-only ([5]; Fig S4C, AD293): 19.4051
Internalisation, Vehicle ([5]; Fig S4C, AD293): 37.9359
Surface expression [6]: 1.2654
INS-1 cAMP (100 nM) [7]: 1.343

— PMC13544220, “Glycemic and bodyweight effects of GIPR coding variation reflect differences in surface expression and intrinsic functional impairment” (Science Advances, 2026)
